Several values for one entry are separate records, joined by “and”; a condition that tells them apart may be missing. Equal values may be shown once. One block for each molecule: values may come before it.
Experiments:
Assay in all cases: cell-based or functional assay
[1] = molecular target: recombinant soluble human RANKL (human) (UniProt O14788)
[2] = molecular target: T1, mouse RANK on murine bone marrow cells (mouse, UniProt O35305 31-625)
T1 sequence (looked up): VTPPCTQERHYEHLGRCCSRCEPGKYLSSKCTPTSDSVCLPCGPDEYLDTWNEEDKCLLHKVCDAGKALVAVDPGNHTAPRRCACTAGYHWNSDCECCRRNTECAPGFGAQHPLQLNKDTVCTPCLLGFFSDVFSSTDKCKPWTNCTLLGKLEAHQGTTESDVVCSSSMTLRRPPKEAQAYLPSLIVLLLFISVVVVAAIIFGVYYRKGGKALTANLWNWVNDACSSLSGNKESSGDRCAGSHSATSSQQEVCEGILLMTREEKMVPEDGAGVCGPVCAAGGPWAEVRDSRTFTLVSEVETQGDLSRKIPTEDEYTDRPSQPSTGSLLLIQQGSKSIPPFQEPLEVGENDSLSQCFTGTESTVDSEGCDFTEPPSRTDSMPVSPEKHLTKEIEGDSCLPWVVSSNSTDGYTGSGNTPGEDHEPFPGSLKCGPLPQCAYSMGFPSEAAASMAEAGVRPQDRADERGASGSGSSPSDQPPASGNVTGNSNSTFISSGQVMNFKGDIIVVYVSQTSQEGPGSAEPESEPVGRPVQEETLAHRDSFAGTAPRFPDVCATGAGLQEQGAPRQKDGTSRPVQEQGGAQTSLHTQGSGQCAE

[3] = molecular target: soluble mouse RANKL (mouse) (UniProt O35235)
soluble mouse RANKL (mouse), sequence (O35235 143-316 limits assumed): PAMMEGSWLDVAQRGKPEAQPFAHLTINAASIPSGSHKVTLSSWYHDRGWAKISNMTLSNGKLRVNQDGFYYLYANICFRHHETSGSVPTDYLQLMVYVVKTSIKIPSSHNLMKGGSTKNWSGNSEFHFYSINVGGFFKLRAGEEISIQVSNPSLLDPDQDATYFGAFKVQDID

recombinant soluble human RANKL (human), sequence (O14788 143-317 limits assumed): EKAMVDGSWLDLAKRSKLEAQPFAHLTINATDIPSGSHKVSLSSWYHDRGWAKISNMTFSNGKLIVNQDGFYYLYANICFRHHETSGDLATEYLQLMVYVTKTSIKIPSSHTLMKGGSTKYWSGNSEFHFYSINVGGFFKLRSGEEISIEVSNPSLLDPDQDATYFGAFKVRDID

- IC50, huRANKL-induced osteoclast formation (TRAP+ multinucleated cells) [1]: 0.092 µg/mL
- concentration for complete block of huRANKL-induced osteoclast formation [1]: 500 ng/mL and 1000 ng/mL
Molecule: RANK-Fc (positive control in osteoclast assay) (Fc fusion)

- IC50, huRANKL-induced osteoclast formation (TRAP+ multinucleated cells) [2]: 0.0035 µg/mL
- IC50, muRANKL-induced osteoclast formation (TRAP+ multinucleated cells) [2]: 0.0074 µg/mL
- potency ratio from IC50s, huRANKL-induced osteoclast formation [2]: ~25 fold
- potency ratio from IC50s, muRANKL-induced osteoclast formation [2]: ~2 fold
B1: anti-RANK 3A3 antibody (full-length IgG, human Fab on a mouse IgG2a Fc backbone) (antibody, V domains shown)
VH: EVQLVESGGGVVQPGTSLRLSCAASGFTFSSYAMHWVRQAPGKGLEWVAVVSYDGSTKSYADSMKGRFTISRDNSKNTLYLQMNSLRAEDTAVYYCAKDPALRYFDWGYFQHWGQGTLVTVSS
VL: SYELTQPPSVSVSPGQTASITCSGDKLGDKYVCWYQQKPGQSPVLVIYGDSERPSGIPERFSGSNSGNTATLTISGTRAVDEADYYCQAWDSTTPLFGGGTNLTVL

- IC50, muRANKL-induced osteoclast formation (TRAP+ multinucleated cells) [3]: 0.0198 µg/mL
- concentration for complete block of muRANKL-induced osteoclast formation [3]: 62.5 to 125 ng/mL
B2: anti-muRANKL IK22-5 mAb (antibody, from a related filing, V domains shown)
VH: QVQLKESGPGLVLSSATLSLTCTVSGFSLTNYDVSWIRHLPGKGLEWMGGVWLSGNTEYNSDFKSRLSISRDISKSQVFLKMSNLKIEDTGTYYCARDIGTTSDYWGQGVTVTVSS
VL: DIQVTQSPSFLSASVGDRVTFNCKTSQNINKYLAWYQAKFGEGPKLLIFNADSLQSGIPPRFSGSGSGTDFTLTISGLQPEDFATYFCLQYNSWPTFGSGTKLEIK
